Experiment [1] addresses T1, CUB domain-containing protein 1 (CDCP1), human, on the surface of human bladder cancer cell lines (human, UniProt Q9H5V8 30-836).
T1 construct: whole, on cells; Endogenous CDCP1 on UMUC3, TCC SUP, 5637, UMUC9 and other bladder cancer lines; also called SIMA135; CD318
T1 sequence (looked up): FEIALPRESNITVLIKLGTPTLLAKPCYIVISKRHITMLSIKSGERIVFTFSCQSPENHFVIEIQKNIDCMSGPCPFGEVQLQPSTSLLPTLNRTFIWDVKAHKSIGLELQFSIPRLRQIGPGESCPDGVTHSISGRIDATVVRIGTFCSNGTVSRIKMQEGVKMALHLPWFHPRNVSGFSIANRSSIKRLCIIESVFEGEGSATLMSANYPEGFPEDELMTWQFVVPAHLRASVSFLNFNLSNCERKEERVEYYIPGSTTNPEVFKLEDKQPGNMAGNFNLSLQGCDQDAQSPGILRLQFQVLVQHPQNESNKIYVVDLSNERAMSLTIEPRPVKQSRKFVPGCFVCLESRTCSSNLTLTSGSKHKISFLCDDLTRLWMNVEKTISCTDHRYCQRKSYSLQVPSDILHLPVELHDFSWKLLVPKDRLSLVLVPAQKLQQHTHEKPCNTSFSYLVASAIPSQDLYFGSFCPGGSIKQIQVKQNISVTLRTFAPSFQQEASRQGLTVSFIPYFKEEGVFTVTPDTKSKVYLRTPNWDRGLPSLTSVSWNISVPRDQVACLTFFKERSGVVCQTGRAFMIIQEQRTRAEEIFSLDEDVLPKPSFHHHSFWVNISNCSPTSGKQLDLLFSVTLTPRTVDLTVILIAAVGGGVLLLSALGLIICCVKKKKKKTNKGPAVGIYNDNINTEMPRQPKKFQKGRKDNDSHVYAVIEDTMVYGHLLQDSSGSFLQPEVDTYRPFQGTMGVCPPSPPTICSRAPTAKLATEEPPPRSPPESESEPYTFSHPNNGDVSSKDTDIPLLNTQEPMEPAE
The experiment can be described thus: flow cytometry on human bladder cancer cell lines (5637, HT-1197, HT-1397, UMUC9, 639V, T24, 253JBV, UMUC3, TCCSUP). On the procedure: Flow Cytometry. Cells were trypsinized and washed, and then incubated with either a PE-anti-CDCP1 antibody (Biolegend #324017, 1:100) or 4A06 for 30 minutes on ice. For cells incubated with unlabeled 4A06, after the 30 min incubation, the cells were washed with PBS multiple times and placed in a fluorophore conjugated secondary antibody solution for 30 minutes on ice (1:1000, 109-546-097, Jackson ImmunoResearch). Cells were collected and washed before being placed in PBS and passed through a cell strainer. Cells were analyzed using an Attune NxT Flow and data were analyzed using FlowJo software.
(§1) CDCP1 protein expression in human bladder cancer cell lines representing luminal (5637, HT-1197, HT-1397, UMUC9) and basal subtypes (639V, T24, 253JBV, UMUC3, TCCSUP) was evaluated. […] UMUC3 and TCC SUP had the highest expression of CDCP1, while UMUC9 and 253 JBV had the lowest relative level. Cell surface receptor numbers were further quantified using ¹²⁵I-labeled 4A06 antibody.
(Flow cytometry measures light scatter and fluorescence of single cells or particles in a stream.)

The target of experiment [2] is T1, CUB domain-containing protein 1 …. The experiment can be described thus: saturation binding of 125I-4A06 on 5637 cells. On the procedure: (§2) Saturation binding assays. ¹²⁵I-4A06 was prepared as previously reported (Moroz et al., Clin Cancer Res, 6(14):3608-3615, 2020). The final yield of purified ¹²⁵I-4A06 was ˜60% (specific activity ˜1 μCi/μg) and purity was >99%. UMUC3, TCC SUP, 5637, and UMUC9 cells (0.6×10⁶ cell/well) were seeded on 12-well plates using DMEM (10% FBS). The cells were washed with PBS for the saturation binding assay. Total binding of ¹²⁵I-4A06 was determined by adding it to cell suspensions at seven concentrations from 0.025 nM to 10 nM. Non-specific binding was determined by adding 1000× cold 4A06 to ¹²⁵I-4A06/cell mixtures at three concentrations. Cells were incubated with ˜0.5 μCi ¹²⁵I-4A06 at room temperature for 1 hr, washed with PBS, and lysed by adding 1.0 M NaOH. The bound and unbound radioactive fractions were collected and measured on a Hidex Gamma counter (Turku, FI). Bmax was calculated using Prism v8.0.
as §1

Experiment [3] has the same target. The experiment can be described thus: saturation binding of 125I-4A06 on UMUC3 cells. The method, then: as §2, §1
Experiment [4] shares this target. The experiment can be described thus: saturation binding of 125I-4A06 on UMUC9 cells. The method, then:
as §2, §1

The target is the same in experiment [5]. The experiment can be described thus: saturation binding of 125I-4A06 on TCC SUP cells. The method, then: as §2, §1

The source of these data is patent US20240366814A1 (University of California, published 2024).

B1: recombinant monoclonal antibody 4A06 (IgG1 format) (antibody, V domains shown)
VH: EVQLVESGGGLVQPGGSLRLSCAASGFNLSYYYIHWVRQAPGKGLEWVASIYSSSSYTSYADSVKGRFTISADTSKNTAYLQMNSLRAEDTAVYYCARAYYGFDYWGQGTLVTVSS
VL: DIQMTQSPSSLSASVGDRVTITCRASQSVSSAVAWYQQKPGKAPKLLIYSASSLYSGVPSRFSGSRSGTDFTLTISSLQPEDFATYYCQQSYYYYPITFGQGTKVEIK
notes: Used unlabelled in flow cytometry, detected with a fluorophore-conjugated secondary antibody; also called CDCP1-002; 4A06 antibody
With B1, the binding result in experiment [1] is reported as “binds”.

B2: 125I-labeled 4A06 antibody (antibody, V domains shown)
VH: B1 VH
VL: B1 VL
modifications: radioiodinated with iodine-125; labelled residues not stated
notes: specific activity ~1 uCi/ug, purity >99%); also called ^125I-4A06; 125I-4A06
Take B2: the Kd in experiment [2] came to 0.284 nM; in experiment [3] it was 1.84 nM; in experiment [4], 0.181 nM; in experiment [5], 0.583 nM.

One may read the Kd as the concentration at which binding is half-saturated. Low readings indicate higher affinity, high ones lower affinity.
